A word on the Km: it is the concentration of substrate that gives half-maximal velocity.

The source of these data is ChEMBL document CHEMBL2074000, “Transport of ethinylestradiol glucuronide and ethinylestradiol sulfate by the multidrug resistance proteins MRP1, MRP2, and MRP3” (J Pharmacol Exp Ther, 2004).

Substrate in data set [1]: C#C[C@]1(O)CC[C@H]2[C@@H]3CCc4cc(O[C@@H]5O[C@H](C(=O)O)[C@@H](O)[C@H](O)[C@H]5O)ccc4[C@H]3CC[C@@]21C
The data set can be described thus: TP_TRANSPORTER: uptake in membrane vesicle from MRP3-expressing Sf9 cells. The class given is functional, cell membranes.

Substrate in data set [2]: [H][C@@]12CC[C@@](O)(C#C)[C@@]1(C)CC[C@]1([H])c3ccc(O[C@@H]4O[C@H](C(=O)O)[C@@H](O)[C@H](O)[C@H]4O)cc3CC[C@@]21[H]
The data set can be described thus: TP_TRANSPORTER: uptake in membrane vesicles from MRP2-expressing Sf9 cells. Type of data set: functional, cell membranes, Membrane vesicle.

B1: Multidrug resistance associated protein (Homo sapiens), Q96QA9 (protein)
chain: MDALCGSGELGSKFWDSNLSVHTENPDLTPCFQNSLLAWVPCIYLWVALPCYLLYLRHHCRGYIILSHLSKLKMVLGVLLWCVSWADLFYSFHGLVHGRAPAPVFFVTPLVVGVTMLLATLLIQYERLQGVQSSGVLIIFWFLCVVCAIVPFRSKILLAKAEGEISDPFRFTTFYIHFALVLSALILACFREKPPFFSAKNVDPNPYPETSAGFLSRLFFWWFTKMAIYGYRHPLEEKDLWSLKEEDRSQMVVQQLLEAWRKQEKQTARHKASAAPGKNASGEDEVLLGARPRPRKPSFLKALLATFGSSFLISACFKLIQDLLSFINPQLLSILIRFISNPMAPSWWGFLVAGLMFLCSMMQSLILQHYYHYIFVTGVKFRTGIMGVIYRKALVITNSVKRASTVGEIVNLMSVDAQRFMDLAPFLNLLWSAPLQIILAIYFLWQNLGPSVLAGVAFMVLLIPLNGAVAVKMRAFQVKQMKLKDSRIKLMSEILNGIKVLKLYAWEPSFLKQVEGIRQGELQLLRTAAYLHTTTTFTWMCSPFLVTLITLWVYVYVDPNNVLDAEKAFVSVSLFNILRLPLNMLPQLISNLTQASVSLKRIQQFLSQEELDPQSVERKTISPGYAITIHSGTFTWAQDLPPTLHSLDIQVPKGALVAVVGPVGCGKSSLVSALLGEMEKLEGKVHMKGSVAYVPQQAWIQNCTLQENVLFGKALNPKRYQQTLEACALLADLEMLPGGDQTEIGEKGINLSGGQRQRVSLARAVYSDADIFLLDDPLSAVDSHVAKHIFDHVIGPEGVLAGKTRVLVTHGISFLPQTDFIIVLADGQVSEMGPYPALLQRNGSFANFLCNYAPDEDQGHLEDSWTALEGAEDKEALLIEDTLSNHTDLTDNDPVTYVVQKQFMRQLSALSSDGEGQGRPVPRRHLGPSEKVQVTEAKADGALTQEEKAAIGTVELSVFWDYAKAVGLCTTLAICLLYVGQSAAAIGANVWLSAWTNDAMADSRQNNTSLRLGVYAALGILQGFLVMLAAMAMAAGGIQAARVLHQALLHNKIRSPQSFFDTTPSGRILNCFSKDIYVVDEVLAPVILMLLNSFFNAISTLVVIMASTPLFTVVILPLAVLYTLVQRFYAATSRQLKRLESVSRSPIYSHFSETVTGASVIRAYNRSRDFEIISDTKVDANQRSCYPYIISNRWLSIGVEFVGNCVVLFAALFAVIGRSSLNPGLVGLSVSYSLQVTFALNWMIRMMSDLESNIVAVERVKEYSKTETEAPWVVEGSRPPEGWPPRGEVEFRNYSVRYRPGLDLVLRDLSLHVHGGEKVGIVGRTGAGKSSMTLCLFRILEAAKGEIRIDGLNVADIGDPILFSGTLRMNLDPFGSYSEEDIWWALELSHLHTFVSSQPAGLDFQCSEGGENLSVGQRQLVCLARALLRKSRILVLDEATAAIDLETDNLIQATIRTQFDTCTVLTIAHRLNTIMDYTRVLVLDKGVVAEFDSPANLIAARGIFYGMARDAGLA
In the case of B1, the Michaelis-Menten constant (Km) in data set [1] came to 9.2 µM.

B2: ATP-binding cassette sub-family C member 2 (Homo sapiens) (protein)
chain: MLEKFCNSTFWNSSFLDSPEADLPLCFEQTVLVWIPLGYLWLLAPWQLLHVYKSRTKRSSTTKLYLAKQVFVGFLLILAAIELALVLTEDSGQATVPAVRYTNPSLYLGTWLLVLLIQYSRQWCVQKNSWFLSLFWILSILCGTFQFQTLIRTLLQGDNSNLAYSCLFFISYGFQILILIFSAFSENNESSNNPSSIASFLSSITYSWYDSIILKGYKRPLTLEDVWEVDEEMKTKTLVSKFETHMKRELQKARRALQRRQEKSSQQNSGARLPGLNKNQSQSQDALVLEDVEKKKKKSGTKKDVPKSWLMKALFKTFYMVLLKSFLLKLVNDIFTFVSPQLLKLLISFASDRDTYLWIGYLCAILLFTAALIQSFCLQCYFQLCFKLGVKVRTAIMASVYKKALTLSNLARKEYTVGETVNLMSVDAQKLMDVTNFMHMLWSSVLQIVLSIFFLWRELGPSVLAGVGVMVLVIPINAILSTKSKTIQVKNMKNKDKRLKIMNEILSGIKILKYFAWEPSFRDQVQNLRKKELKNLLAFSQLQCVVIFVFQLTPVLVSVVTFSVYVLVDSNNILDAQKAFTSITLFNILRFPLSMLPMMISSMLQASVSTERLEKYLGGDDLDTSAIRHDCNFDKAMQFSEASFTWEHDSEATVRDVNLDIMAGQLVAVIGPVGSGKSSLISAMLGEMENVHGHITIKGTTAYVPQQSWIQNGTIKDNILFGTEFNEKRYQQVLEACALLPDLEMLPGGDLAEIGEKGINLSGGQKQRISLARATYQNLDIYLLDDPLSAVDAHVGKHIFNKVLGPNGLLKGKTRLLVTHSMHFLPQVDEIVVLGNGTIVEKGSYSALLAKKGEFAKNLKTFLRHTGPEEEATVHDGSEEEDDDYGLISSVEEIPEDAASITMRRENSFRRTLSRSSRSNGRHLKSLRNSLKTRNVNSLKEDEELVKGQKLIKKEFIETGKVKFSIYLEYLQAIGLFSIFFIILAFVMNSVAFIGSNLWLSAWTSDSKIFNSTDYPASQRDMRVGVYGALGLAQGIFVFIAHFWSAFGFVHASNILHKQLLNNILRAPMRFFDTTPTGRIVNRFAGDISTVDDTLPQSLRSWITCFLGIISTLVMICMATPVFTIIVIPLGIIYVSVQMFYVSTSRQLRRLDSVTRSPIYSHFSETVSGLPVIRAFEHQQRFLKHNEVRIDTNQKCVFSWITSNRWLAIRLELVGNLTVFFSALMMVIYRDTLSGDTVGFVLSNALNITQTLNWLVRMTSEIETNIVAVERITEYTKVENEAPWVTDKRPPPDWPSKGKIQFNNYQVRYRPELDLVLRGITCDIGSMEKIGVVGRTGAGKSSLTNCLFRILEAAGGQIIIDGVDIASIGLHDLREKLTIIPQDPILFSGSLRMNLDPFNNYSDEEIWKALELAHLKSFVASLQLGLSHEVTEAGGNLSIGQRQLLCLGRALLRKSKILVLDEATAAVDLETDNLIQTTIQNEFAHCTVITIAHRLHTIMDSDKVMVLDNGKIIECGSPEELLQIPGPFYFMAKEAGIENVNSTKF
With B2, the Km in data set [2] is 35.1 µM.
